Experiment [1] deals with T1, cynomolgus CD73 on the cell surface (293T/17-cynoCD73 cells) (cynomolgus (Macaca fascicularis), UniProt P21589 27-547 (human entry)).
T1 chain: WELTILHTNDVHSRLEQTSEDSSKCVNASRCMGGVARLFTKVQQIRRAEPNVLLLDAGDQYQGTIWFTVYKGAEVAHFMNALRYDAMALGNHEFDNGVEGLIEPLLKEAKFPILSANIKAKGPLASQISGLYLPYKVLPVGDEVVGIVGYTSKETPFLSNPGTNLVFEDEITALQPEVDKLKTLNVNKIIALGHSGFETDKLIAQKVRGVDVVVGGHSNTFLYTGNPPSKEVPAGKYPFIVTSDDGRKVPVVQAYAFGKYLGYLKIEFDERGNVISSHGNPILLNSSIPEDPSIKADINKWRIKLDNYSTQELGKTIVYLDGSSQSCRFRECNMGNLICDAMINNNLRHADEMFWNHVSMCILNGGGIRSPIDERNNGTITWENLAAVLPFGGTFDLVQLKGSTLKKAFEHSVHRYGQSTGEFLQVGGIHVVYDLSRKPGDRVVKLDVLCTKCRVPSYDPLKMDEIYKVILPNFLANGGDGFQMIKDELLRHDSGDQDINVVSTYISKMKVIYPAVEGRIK
Put plainly: cell-based or functional assay.

For experiment [2], the target named is T1, cynomolgus CD73 on the cell surface …. Briefly: flow cytometry on 293T/17-Cyno CD73 cells. The method, then:
(§1) 2×10⁶ cells resuspended in PBS buffer were distributed into 96-well plates and incubated with gradient diluted humanized antibodies for 1 h at refrigerator 4° C. or on ice, then the cells was centrifuged for 3 min 1500 rpm at 4° C. and washed three times by PBS, and diluted APC-labeled goat anti-human polyclonal antibody (Biolegend) were incubated for 30 min at refrigerator 4° C. Finally, the cells were washed three times with PBS as described above and analyzed on MACSQuant flow cytometer. GraphPad Prism software was used to generate data graphs and statistical affinity data.
(§2) The samples to be tested were incubated for 1 h at 4° C. after gradient dilution. After washing, 100 μL of APC-labeled secondary antibody was added to each well and incubated for 30 min. After washing, detecting on machine and the fluorescence value was read. GraphPad Prism software was used to generate data graphs and statistical affinity data.

The target of experiment [3] is T2, human CD73 ecto-domain recombinant protein (huCD73) (human, UniProt P21589 27-547).
T2 construct: also called soluble huCD73; soluble recombinant CD73
T2 sequence: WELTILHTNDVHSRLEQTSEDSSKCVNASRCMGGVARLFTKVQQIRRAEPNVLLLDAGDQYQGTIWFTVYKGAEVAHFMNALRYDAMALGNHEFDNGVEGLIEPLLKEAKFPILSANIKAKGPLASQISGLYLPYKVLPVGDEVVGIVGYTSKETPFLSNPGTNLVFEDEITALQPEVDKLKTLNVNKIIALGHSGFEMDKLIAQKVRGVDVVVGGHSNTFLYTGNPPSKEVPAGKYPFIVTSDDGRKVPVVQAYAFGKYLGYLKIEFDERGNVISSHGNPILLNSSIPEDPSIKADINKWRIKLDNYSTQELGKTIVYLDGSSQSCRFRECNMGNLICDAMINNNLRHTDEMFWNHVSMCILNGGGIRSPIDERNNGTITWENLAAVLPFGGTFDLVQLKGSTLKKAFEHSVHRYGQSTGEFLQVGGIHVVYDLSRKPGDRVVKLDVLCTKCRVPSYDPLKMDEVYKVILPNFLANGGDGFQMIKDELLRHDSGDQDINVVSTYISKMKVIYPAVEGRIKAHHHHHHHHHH
Briefly: indirect ELISA, coated huCD73 recombinant protein. The method, then: (§3) Incubated with gradient diluted 100 μL/well of antibodies for 1 h at room temperature. After the plates were washed 3 times with 200 ul/well of PBST, 100 ul of diluted HRP-labeled secondary antibody at a ratio of 1:5000 was added to each well, and the plates were incubated for 1 hour at room temperature. The plates were washed 3 times with 200 ul/well of PBST, 100 ul of TMB was added to each well and reacted for 5 minutes at room temperature in the dark. […] read the OD value. The affinity of humanized antibodies and parent antibodies were similar to the antigen (table 9).

The target in experiment [4] is T1, cynomolgus CD73 on the cell surface …. Briefly: flow cytometry on 293T/17-Cyno CD73 cells, curve fit. The method, then: as §1, §2
Experiment [5] deals with T2, human CD73 ecto-domain recombinant …. Put plainly: indirect ELISA, coated huCD73 recombinant protein, curve fit. The method, then: as §3
The target is the same in experiment [6]. Briefly: indirect ELISA, plate coated with 1 ug/ml huCD73 recombinant protein, HRP-labelled secondary antibody, RFU. The method, then: as §3

The record followed here is patent US20220064322A1 (JACOBIO PHARMACEUTICALS, published 2022).

B1: JB94H2L1 (antibody, human IgG1, kappa, V domains shown)
VH: QVQLVQSGAEVKKPGASVKVSCKASGYTFTSYWMHWVRQRPGQGLEWMGYINPSSGYTKSNQKFKDRVTLTADTSTSTAYMELSSLRSEDTAVYYCGRWLLSAWFAYWGQGTLVTVSS
VL: DIQMTQSPSSLSASVGDRVTITCKASQDINTYLSWFQQKPGKAPKSLIYRSNILVDGVPSRFSGSGSGQDFTLTISSLQPEDFAIYYCLQYDDFPYTFGQGTKLEIKR
notes: Humanized antibody of the 94 clone, human IgG1 / kappa
On to B1, for which the “IC50, blockade of 5'exonuclease activity on 293T/17-Cyno CD73 cells” value (shortened to “IC50, blockade of 5'exonuclease activity”) in experiment [1] is 0.0001 nM. The concentration giving a half-maximal response (EC50) stood at 7.97 nM in experiment [2] and 0.0252 nM in experiment [3]. In addition, the figures for the Bottom in experiment [4] and in experiment [5] were 0.22 fluorescence and -142 OD value, respectively. Also, the Top in experiment [4] was 82 fluorescence; in experiment [5], 7110 OD value. Moreover, the 50% effective concentration (EC50 (read off the curve)) in experiment [6] is approximately 0.02 µg/mL.

B2: JB94H3L3 (antibody, human IgG1, kappa, V domains shown)
VH: QVQLQQSGAEVKKPGASVKLSCKASGYTFTSYWMHWVRQRPGQGLEWIGYINPSSGYTKSNQKFKDRATLTADTSTSTAYMELSSLRSEDTAVYYCGRWLLSAWFAYWGQGTLVTVSS
VL: DIQMTQSPSSLSASVGDRVTITCKASQDINTYLSWFQQKPGKSPKSLIYRSNILVDGVPSRFSGSGSGQDYTLTISSLQPEDFAIYYCLQYDDFPYTFGQGTKLEIKR
notes: as for B1
Turning to B2, the “IC50, blockade of 5'exonuclease activity” value in experiment [1] came out at 0.002 nM. The EC50 in experiment [2] was determined as 9.82 nM; in experiment [3], 0.0292 nM. The Bottom in experiment [4] came out at 1.4 fluorescence; in experiment [5], 320 OD value. The Top came to 125 fluorescence in experiment [4] and 8900 OD value in experiment [5]. Also, the half-maximal effective concentration (EC50 (read off the curve)) in experiment [6] is approximately 0.03 µg/mL.

B3: JB24H3L2 (antibody, human IgG1, kappa, V domains shown)
VH: QVQLVQSGAEVKKPGASVKMSCKASGYTFTDYNMHWVKQSHGKSLEWIGYIKPHNAGTTYNPKFEGRATLTVDTSASTAYMELRSLRSEDTAVYYCVRSDFLYWYFDVWGQGTTVTVSS
VL: DIQMTQSPSSLSASVGDRVTITCTASSSVSSSYLHWYQQKPGSAPKLWIYSTSNLASGVPSRFSGSGSGTDYTLTISSLQPEDFATYYCHQYHRSPLTFGAGTKLEIKR
notes: Humanized antibody of JB24Chi, human IgG1 / kappa
For the molecule B3, in experiment [1], the “IC50, blockade of 5'exonuclease activity” value was 0.004 nM. In addition, the EC50 in experiment [2] was determined as 3.59 nM; in experiment [3] it was 0.0208 nM. For the same molecule, the Bottom came out at 0.509 fluorescence in experiment [4] and 89.1 OD value in experiment [5]. The Top in experiment [4] was 48.7 fluorescence; in experiment [5] it was 7140 OD value. For the same molecule, in experiment [6], the half-maximal effective concentration (EC50 (read off the curve)) was approximately 0.2 µg/mL.

B4: JB24H3L3 (antibody, human IgG1, kappa, V domains shown)
VH: QVQLVQSGAEVKKPGASVKMSCKASGYTFTDYNMHWVKQSHGKSLEWIGYIKPHNAGTTYNPKFEGRATLTVDTSASTAYMELRSLRSEDTAVYYCVRSDFLYWYFDVWGQGTTVTVSS
VL: DIVMTQSPSSLSASVGDRVTITCTASSSVSSSYLHWYQQKPGSSPKLWIYSTSNLASGVPGRFSGSGSGTDYTLTISSLQPEDFATYYCHQYHRSPLTFGAGTKLEIKR
notes: as for B3
Consider B4, for which, in experiment [1], the “IC50, blockade of 5'exonuclease activity” value came out at 0.003 nM. Besides, the half-maximal effective concentration (EC50) was determined as 3.73 nM in experiment [2] and 0.0228 nM in experiment [3]. The Bottom in experiment [4] was found to be 0.917 fluorescence; in experiment [5] it was 9.8 OD value. Besides, the Top was found to be 34 fluorescence in experiment [4] and 7310 OD value in experiment [5]. Further, the concentration for a half-maximal effect (EC50 (read off the curve)) in experiment [6] is approximately 0.2 µg/mL.

B5: 94H1L3 hIgG2 (antibody)
heavy: QVQLVQSGAEVKKPGASVKVSCKASGYTFTSYWMHWVRQAPGQGLEWMGYINPSSGYTKSNQKFKDRVTMTADTSTSTAYMELSSLRSEDTAVYYCGRWLLSAWFAYWGQGTLVTVSSASTKGPSVFPLAPCSRSTSESTAALGCLVKDYFPEPVTVSWNSGALTSGVHTFPAVLQSSGLYSLSSVVTVPSSNFGTQTYTCNVDHKPSNTKVDKTVERKCCVECPPCPAPPVAGPSVFLFPPKPKDTLMISRTPEVTCVVVDVSHEDPEVQFNWYVDGVEVHNAKTKPREEQFNSTFRVVSVLTVVHQDWLNGKEYKCKVSNKGLPAPIEKTISKTKGQPREPQVYTLPPSREEMTKNQVSLTCLVKGFYPSDIAVEWESNGQPENNYKTTPPMLDSDGSFFLYSKLTVDKSRWQQGNVFSCSVMHEALHNHYTQKSLSLSPGK
light: DIQMTQSPSSLSASVGDRVTITCKASQDINTYLSWFQQKPGKSPKSLIYRSNILVDGVPSRFSGSGSGQDYTLTISSLQPEDFAIYYCLQYDDFPYTFGQGTKLEIKRTVAAPSVFIFPPSDEQLKSGTASVVCLLNNFYPREAKVQWKVDNALQSGNSQESVTEQDSKDSTYSLSSTLTLSKADYEKHKVYACEVTHQGLSSPVTKSFNRGEC
Take B5: the “IC50, blockade of 5'exonuclease activity” value in experiment [1] stood at 0.021 nM.

B6: JB94Chi (antibody, human IgG1, kappa)
heavy: not shown
light: DIRMTQSPSSMYASLGERVTITCKASQDINTYLSWFQQKPGKSPKSLIYRSNILVDGVPSRFSGSGSGQDYSLTISSLEYEDMGIYYCLQYDDFPYTFGGGTKLEIKRTVAAPSVFIFPPSDEQLKSGTASVVCLLNNFYPREAKVQWKVDNALQSGNSQESVTEQDSKDSTYSLSSTLTLSKADYEKHKVYACEVTHQGLSSPVTKSFNRGEC
notes: Chimeric antibody: mouse Fv of 94A12G11F with human IgG1 and human kappa constant regions
Take B6: in experiment [1], the “IC50, blockade of 5'exonuclease activity” value worked out at 0.001 nM. Further, the EC50 in experiment [2] came to 8.59 nM; in experiment [3] it was 0.0357 nM. Besides, the Bottom worked out at 1.45 fluorescence in experiment [4] and 152 OD value in experiment [5]. The Top in experiment [4] stood at 124 fluorescence; in experiment [5], 8470 OD value. Moreover, in experiment [6], the “EC50 (read off the curve)” value is approximately 0.03 µg/mL.
